The text below walks through data of ChEMBL document CHEMBL2146416.

What all share (conditions): Sus scrofa
Data set [1] has as its system NCc1csc(C(=O)O)c1. The data set is described as follows: (§1) Activity of pig GABA aminotransferase using alpha-ketoglutarate as substrate after 16 hrs by Hanes-Woolf plot analysis.
In data set [2] the test system is NCc1cocc1C(=O)O. Described as §1.
In data set [3] the test system is NCc1ccc(C(=O)O)[nH]1. The description is as §1.
The subject of data set [4] is NCc1c[nH]c(C(=O)O)c1. The description is as §1.
Data set [5] relates to NCc1ccc(C(=O)O)o1. The data set is described as §1.
In data set [6] the test system is NCc1coc(C(=O)O)c1. The description is as §1.
Data set [7] deals with NCc1ccc(C(=O)O)s1. The description is as §1.
For a further data set, the system named is NCc1cscc1C(=O)O. Described as §1.
Data set [8] has as its system NCc1csc(C(=O)O)c1. Kind of data set: (§2) Ratio of Kcat to Km for pig GABA aminotransferase.
The subject of data set [9] is NCc1cocc1C(=O)O. The data set is described as §2.
The test system of data set [10] is NCc1ccc(C(=O)O)[nH]1. Described as §2.
The subject of data set [11] is NCc1c[nH]c(C(=O)O)c1. The description is as §2.
The subject of data set [12] is NCc1ccc(C(=O)O)o1. The description is as §2.
Data set [13] has as its system NCc1coc(C(=O)O)c1. The data set is described as §2.
In data set [14] the test system is NCc1ccc(C(=O)O)s1. Described as §2.

4-aminobutyrate aminotransferase, mitochondrial (Sus scrofa), P80147, sequence (P80147 whole entry): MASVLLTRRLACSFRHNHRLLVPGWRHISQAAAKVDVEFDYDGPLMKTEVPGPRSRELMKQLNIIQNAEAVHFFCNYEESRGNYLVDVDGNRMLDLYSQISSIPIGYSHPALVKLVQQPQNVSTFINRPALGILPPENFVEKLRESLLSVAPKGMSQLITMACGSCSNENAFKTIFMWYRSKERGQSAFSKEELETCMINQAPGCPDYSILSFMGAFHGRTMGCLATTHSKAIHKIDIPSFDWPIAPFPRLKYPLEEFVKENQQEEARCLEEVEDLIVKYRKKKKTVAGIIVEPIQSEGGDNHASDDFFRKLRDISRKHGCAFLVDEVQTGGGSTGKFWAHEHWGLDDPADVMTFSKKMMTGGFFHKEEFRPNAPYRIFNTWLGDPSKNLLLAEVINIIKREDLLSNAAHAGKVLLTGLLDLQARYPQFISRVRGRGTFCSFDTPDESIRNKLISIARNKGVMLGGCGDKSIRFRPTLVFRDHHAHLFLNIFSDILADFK

With “4-aminobutyrate aminotransferase, mitochondrial (Sus scrofa), P80147”, the Km (commonly the substrate concentration at which the rate is half of its maximum) with NCc1csc(C(=O)O)c1 [1] worked out at 1700 µM; in the data set on NCc1cocc1C(=O)O [2] it was 2800 µM; in the data set on NCc1ccc(C(=O)O)[nH]1 [3] it was 9500 µM; in the data set with NCc1c[nH]c(C(=O)O)c1 [4], 1400 µM; with NCc1ccc(C(=O)O)o1 [5], 2100 µM; with NCc1coc(C(=O)O)c1 [6] it was 310 µM. Also, the Km in the data set on NCc1ccc(C(=O)O)s1 [7] is 6300 µM; with NCc1cscc1C(=O)O it was more than 10000 µM. Also, the kcat with NCc1csc(C(=O)O)c1 [1] came out at 5.2 ×10⁻³ /min; in the data set with NCc1cocc1C(=O)O [2], 8.3 ×10⁻⁴ /min; in the data set with NCc1ccc(C(=O)O)[nH]1 [3], 1.5 ×10⁻³ /min; with NCc1c[nH]c(C(=O)O)c1 [4], 3.4 ×10⁻³ /min; with NCc1ccc(C(=O)O)o1 [5] it was 3.4 ×10⁻² /min; in the data set with NCc1coc(C(=O)O)c1 [6], 2.3 ×10⁻³ /min. Further, the kcat in the data set on NCc1ccc(C(=O)O)s1 [7] worked out at 1 ×10⁻² /min. For the same substance, the kcat/Km (commonly the turnover number divided by the Michaelis constant) turned out to be 0.00517 M⁻¹ s⁻¹ in the data set with NCc1csc(C(=O)O)c1 [8]; 0.005 M⁻¹ s⁻¹ in the data set on NCc1cocc1C(=O)O [9]; 0.00267 M⁻¹ s⁻¹ with NCc1ccc(C(=O)O)[nH]1 [10]; 0.04 M⁻¹ s⁻¹ in the data set on NCc1c[nH]c(C(=O)O)c1 [11]; 0.267 M⁻¹ s⁻¹ in the data set with NCc1ccc(C(=O)O)o1 [12]; 0.123 M⁻¹ s⁻¹ in the data set with NCc1coc(C(=O)O)c1 [13]. In the data set with NCc1ccc(C(=O)O)s1 [14], the kcat/Km was determined as 0.0267 M⁻¹ s⁻¹.
